For 39 variants, abundance fitness results are on record in the Human Domainome abundance scans (Beltran et al. 2025).

B1: Protein maelstrom homolog, residues 3 to 71; numbered along this chain, Q96JY0 (parent)
chain: NRKASRNAYYFFVQEKIPELRRRGLPVARVADAIPYCSSDWALLREEEKEKYAEMAREWRAAQGKDPGP

± gives the uncertainty stated by the source.

In the data set the parent is B1. Briefly: abundance fitness (aPCA) (normalised: wild type 0, dead -1); higher = more abundant; growth selection in yeast, the domain comes from the species named. To be noted: Homo sapiens.
With NRKASRNAYYFFVQEKIPELRRRALPVARVADAIPYCSSDWALLREEEKEKYAEMAREWRAAQGKDPGP [G24A], the abundance fitness is -0.398 ± 0.2.
Take NRKASRNAYYFFVQEKIPELRRRSLPVARVADAIPYCSSDWALLREEEKEKYAEMAREWRAAQGKDPGP [G24S]: the abundance fitness is -0.773 ± 0.25.
For NRKASRNAYYFFVQEKIPELRRRDLPVARVADAIPYCSSDWALLREEEKEKYAEMAREWRAAQGKDPGP [G24D], the abundance fitness was -0.311 ± 0.25.
In the case of NRKASRNAYYFFVQEKIPELRRRGLPVMRVADAIPYCSSDWALLREEEKEKYAEMAREWRAAQGKDPGP [A28M], the abundance fitness was -0.319 ± 0.21.
For NRKASRNAYYFFVQEKIPELRRRGLPVSRVADAIPYCSSDWALLREEEKEKYAEMAREWRAAQGKDPGP [A28S] the value was -0.324 ± 0.31; for NRKASRNAYYFFVQEKIPELRRRGLPVARVEDAIPYCSSDWALLREEEKEKYAEMAREWRAAQGKDPGP [A31E], 0.131 ± 0.093.
With NRKASRNAYYFFVQEKIPELRRRGLPVARVQDAIPYCSSDWALLREEEKEKYAEMAREWRAAQGKDPGP [A31Q], the abundance fitness was -0.21 ± 0.11.
Regarding NRKASRNAYYFFVQEKIPELRRRGLPVARVCDAIPYCSSDWALLREEEKEKYAEMAREWRAAQGKDPGP [A31C], the abundance fitness worked out at 0.085 ± 0.09.
For the variant NRKASRNAYYFFVQEKIPELRRRGLPVARVVDAIPYCSSDWALLREEEKEKYAEMAREWRAAQGKDPGP [A31V], the abundance fitness is -0.1 ± 0.072.
For the variant NRKASRNAYYFFVQEKIPELRRRGLPVARVRDAIPYCSSDWALLREEEKEKYAEMAREWRAAQGKDPGP [A31R], the abundance fitness is -0.06 ± 0.058.
Consider NRKASRNAYYFFVQEKIPELRRRGLPVARVIDAIPYCSSDWALLREEEKEKYAEMAREWRAAQGKDPGP [A31I], for which the abundance fitness was -0.603 ± 0.27.
In the case of NRKASRNAYYFFVQEKIPELRRRGLPVARVWDAIPYCSSDWALLREEEKEKYAEMAREWRAAQGKDPGP [A31W], the abundance fitness is -0.286 ± 0.082.
With NRKASRNAYYFFVQEKIPELRRRGLPVARVYDAIPYCSSDWALLREEEKEKYAEMAREWRAAQGKDPGP [A31Y], the abundance fitness was -0.178 ± 0.17.
Take NRKASRNAYYFFVQEKIPELRRRGLPVARVPDAIPYCSSDWALLREEEKEKYAEMAREWRAAQGKDPGP [A31P]: the abundance fitness is -0.019 ± 0.15.
As to NRKASRNAYYFFVQEKIPELRRRGLPVARVKDAIPYCSSDWALLREEEKEKYAEMAREWRAAQGKDPGP [A31K], the abundance fitness was 0.161 ± 0.082.
For NRKASRNAYYFFVQEKIPELRRRGLPVARVLDAIPYCSSDWALLREEEKEKYAEMAREWRAAQGKDPGP [A31L] the value was -0.291 ± 0.09; for NRKASRNAYYFFVQEKIPELRRRGLPVARVGDAIPYCSSDWALLREEEKEKYAEMAREWRAAQGKDPGP [A31G], -0.099 ± 0.062; for NRKASRNAYYFFVQEKIPELRRRGLPVARVSDAIPYCSSDWALLREEEKEKYAEMAREWRAAQGKDPGP [A31S], -0.047 ± 0.1.
For the variant NRKASRNAYYFFVQEKIPELRRRGFPVARVADAIPYCSSDWALLREEEKEKYAEMAREWRAAQGKDPGP [L25F], the abundance fitness was -0.229 ± 0.35.
Regarding NRKASRNAYYFFVQEKIPELRRHGLPVARVADAIPYCSSDWALLREEEKEKYAEMAREWRAAQGKDPGP [R23H], the abundance fitness was -0.467 ± 0.35.
For NRKASRNAYYFFVQEKIPELRYRGLPVARVADAIPYCSSDWALLREEEKEKYAEMAREWRAAQGKDPGP [R22Y] the value was -0.583 ± 0.2.
On to NRKASRNAYYFFVQEKIPELRRRGLPVARCADAIPYCSSDWALLREEEKEKYAEMAREWRAAQGKDPGP [V30C], for which the abundance fitness is -0.174 ± 0.093.
Regarding NRKASRNAYYFFVQEKIPELRRRGLPVARHADAIPYCSSDWALLREEEKEKYAEMAREWRAAQGKDPGP [V30H], the abundance fitness is -0.17 ± 0.11.
Take NRKASRNAYYFFVQEKIPELRRRGLPVARRADAIPYCSSDWALLREEEKEKYAEMAREWRAAQGKDPGP [V30R]: the abundance fitness was -0.614 ± 0.053.
For NRKASRNAYYFFVQEKIPELRRRGLPVARWADAIPYCSSDWALLREEEKEKYAEMAREWRAAQGKDPGP [V30W] the value was -0.225 ± 0.067; for NRKASRNAYYFFVQEKIPELRRRGLPVARQADAIPYCSSDWALLREEEKEKYAEMAREWRAAQGKDPGP [V30Q], -0.567 ± 0.093.
Turning to NRKASRNAYYFFVQEKIPELRRRGLPVARNADAIPYCSSDWALLREEEKEKYAEMAREWRAAQGKDPGP [V30N], the abundance fitness is -0.559 ± 0.24.
In the case of NRKASRNAYYFFVQEKIPELRRRGLPVARGADAIPYCSSDWALLREEEKEKYAEMAREWRAAQGKDPGP [V30G] it was -0.607 ± 0.061; in that of NRKASRNAYYFFVQEKIPELRRRGLPVARYADAIPYCSSDWALLREEEKEKYAEMAREWRAAQGKDPGP [V30Y], -0.09 ± 0.13; in that of NRKASRNAYYFFVQEKIPELRRRGLPVARIADAIPYCSSDWALLREEEKEKYAEMAREWRAAQGKDPGP [V30I], -0.652 ± 0.32.
With NRKASRNAYYFFVQEKIPELRRRGLPVARSADAIPYCSSDWALLREEEKEKYAEMAREWRAAQGKDPGP [V30S], the abundance fitness is -0.238 ± 0.082.
As for NRKASRNAYYFFVQEKIPELRRRGLPVARKADAIPYCSSDWALLREEEKEKYAEMAREWRAAQGKDPGP [V30K], the abundance fitness was -0.514 ± 0.087.
As for NRKASRNAYYFFVQEKIPELRRRGLPVARDADAIPYCSSDWALLREEEKEKYAEMAREWRAAQGKDPGP [V30D], the abundance fitness was -0.518 ± 0.17.
For NRKASRNAYYFFVQEKIPELRRRGLPVAREADAIPYCSSDWALLREEEKEKYAEMAREWRAAQGKDPGP [V30E] the value was -0.272 ± 0.068.
With NRKASRNAYYFFVQEKIPELRRRGLPVARMADAIPYCSSDWALLREEEKEKYAEMAREWRAAQGKDPGP [V30M], the abundance fitness was -0.164 ± 0.09.
Turning to NRKASRNAYYFFVQEKIPELRRRGLPVARAADAIPYCSSDWALLREEEKEKYAEMAREWRAAQGKDPGP [V30A], the abundance fitness was -0.286 ± 0.059.
As for NRKASRNAYYFFVQEKIPELRRRGLPVARPADAIPYCSSDWALLREEEKEKYAEMAREWRAAQGKDPGP [V30P], the abundance fitness amounted to 0.113 ± 0.087.
Regarding NRKASRNAYYFFVQEKIPELRRRGLPVARFADAIPYCSSDWALLREEEKEKYAEMAREWRAAQGKDPGP [V30F], the abundance fitness was -0.226 ± 0.14.
In the case of NRKASRNAYYFFVQEKIPELRRRGLPVAMVADAIPYCSSDWALLREEEKEKYAEMAREWRAAQGKDPGP [R29M] it was -0.09 ± 0.09.
